Measurements reported in the supplement of paper PMC11246515.
± gives the standard deviation of the averaged measurements.

Experiment: total protein half-life in vivo (active degradation + dilution); higher = more stable protein
[1] = E. coli NCM3722 delta-clpP delta-lon delta-hslV, growth: N-lim chemostat, doubling time 6 h
[2] = E. coli NCM3722 delta-clpP, growth: N-lim chemostat, doubling time 6 h
[3] = E. coli NCM3722 delta-hslV, growth: N-lim chemostat, doubling time 6 h
[4] = E. coli NCM3722 delta-lon, growth: N-lim chemostat, doubling time 6 h
[5] = E. coli NCM3722 delta-smpB, growth: N-lim chemostat, doubling time 6 h
[6] = wild type E. coli NCM3722, growth: C-lim chemostat, doubling time 3 h
[7] = wild type E. coli NCM3722, growth: C-lim chemostat, doubling time 6 h
[8] = wild type E. coli NCM3722, growth: N-lim chemostat, doubling time 6 h
[9] = wild type E. coli NCM3722, growth: N-lim chemostat, doubling time 12 h
[10] = wild type E. coli NCM3722, growth: P-lim chemostat, doubling time 6 h
[11] = wild type E. coli NCM3722, growth: P-lim chemostat, doubling time 12 h
[12] = wild type E. coli NCM3722, growth: C-lim chemostat, doubling time 12 h

Sequence	total protein half-life in vivo [1]	total protein half-life in vivo [2]	total protein half-life in vivo [3]	total protein half-life in vivo [4]	total protein half-life in vivo [5]	total protein half-life in vivo [6]	total protein half-life in vivo [7]	total protein half-life in vivo [8]	total protein half-life in vivo [9]	total protein half-life in vivo [10]	total protein half-life in vivo [11]	total protein half-life in vivo [12]
MANVEIYTKETCPYCHRAKALLSSKGVSFQELPIDGNAAKREEMIKRSGRTTVPQIFIDAQHIGGCDDLYALDARGGLDPLLK [P0AC62]	6.58 h	5.58 ± 0.71 h	4.93 ± 0.091 h	5.33 ± 0.32 h	5.71 ± 1.9 h	2.89 ± 0.5 h	5.23 ± 1 h	4.68 h	9.44 ± 2.5 h	5.35 ± 0.39 h	12.6 ± 1.1 h	–
MSRMAEQQLYIHGGYTSATSGRTFETINPANGNVLATVQAAGREDVDRAVKSAQQGQKIWASMTAMERSRILRRAVDILRERNDELAKLETLDTGKAYSETSTVDIVTGADVLEYYAGLIPALEGSQIPLRETSFVYTRREPLGVVAGIGAWNYPIQIALWKSAPALAAGNAMIFKPSEVTPLTALKLAEIYSEAGLPDGVFNVLPGVGAETGQYLTEHPGIAKVSFTGGVASGKKVMANSAASSLKEVTMELGGKSPLIVFDDADLDLAADIAMMANFFSSGQVCTNGTRVFVPAKCKAAFEQKILARVERIRAGDVFDPQTNFGPLVSFPHRDNVLRYIAKGKEEGARVLCGGDVLKGDGFDNGAWVAPTVFTDCSDDMTIVREEIFGPVMSILTYESEDEVIRRANDTDYGLAAGIVTADLNRAHRVIHQLEAGICWINTWGESPAEMPVGGYKHSGIGRENGVMTLQSYTQVKSIQVEMAKFQSIF	5.11 ± 0.25 h	5.45 ± 1.3 h	5.06 ± 0.11 h	5.28 ± 0.61 h	4.486 ± 0.038 h	–	5.21 ± 0.24 h	4.37 ± 0.14 h	7.63 ± 0.23 h	6 ± 0.24 h	11.7 ± 0.46 h	11.1 ± 0.13 h
MVRRLTSPRLEFEAAAIYEYPEHLRSFLNDLPTRPGVYLFHGESDTMPLYIGKSVNIRSRVLSHLRTPDEAAMLRQSRRISWICTAGEIGALLLEARLIKEQQPLFNKRLRRNRQLCALQLNEKRVDVVYAKEVDFSRAPNLFGLFANRRAALQALQTIADEQKLCYGLLGLEPLSRGRACFRSALKRCAGACCGKESHEEHALRLRQSLERLRVVCWPWQGAVALKEQHPEMTQYHIIQNWLWLGAVNSLEEATTLIRTPAGFDHDGYKILCKPLLSGNYEITELDPANDQRAS	5.53 ± 1.1 h	–	1.43 h	–	0.89 h	1.06 h	–	1.6 ± 0.079 h	–	1.28 h	–	1.93 h
MSNQGEYPEDNRVGKHEPHDLSLTRRDLIKVSAATAATAVVYPHSTLAASVPAATPAPEIMPLTLKVNGKTEQLEVDTRTTLLDTLRENLHLIGTKKGCDHGQCGACTVLVNGRRLNACLTLAVMHQGAEITTIEGLGSPDNLHPMQAAFIKHDGFQCGYCTSGQICSSVAVLKEIQDGIPSHVTVDLVSAPETTADEIRERMSGNICRCGAYANILAAIEDAAGEIKS	2.91 ± 0.9 h	–	–	2.02 h	–	–	–	–	–	–	–	–
MHTSELLKHIYDINLSYLLLAQRLIVQDKASAMFRLGINEEMATTLAALTLPQMVKLAETNQLVCHFRFDSHQTITQLTQDSRVDDLQQIHTGIMLSTRLLNDVNQPEEALRKKRA [P0A8S9]	6.51 ± 0.47 h	–	–	–	–	0.799 h	–	–	–	–	–	–
MRVLIVKTSSMGDVLHTLPALTDAQQAIPGIKFDWVVEEGFAQIPSWHAAVERVIPVAIRRWRKAWFSAPIKAERKAFREALQAENYDAVIDAQGLVKSAALVTRLAHGVKHGMDWQTAREPLASLFYNRKHHIAKQQHAVERTRELFAKSLGYSKPQTQGDYAIAQHFLTNLPTDAGEYAVFLHATTRDDKHWPEEHWRELIGLLADSGIRIKLPWGAPHEEERAKRLAEGFAYVEVLPKMSLEGVARVLAGAKFVVSVDTGLSHLTAALDRPNITVYGPTDPGLIGGYGKNQMVCRAPRENLINLNSQAVLEKLSSL	5.54 ± 0.21 h	5.02 ± 0.34 h	5.1 h	5.08 ± 0.063 h	5.74 ± 1.2 h	2.76 ± 0.13 h	5.73 ± 0.28 h	5.72 ± 0.27 h	11.5 ± 2.6 h	5.23 ± 0.16 h	10.63 ± 0.039 h	13.2 ± 2.2 h
MTHIRIEKGTGGWGGPLELKATPGKKIVYITAGTRPAIVDKLAQLTGWQAIDGFKEGEPAEAEIGVAVIDCGGTLRCGIYPKRRIPTINIHSTGKSGPLAQYIVEDIYVSGVKEENITVVGDATPQPSSVGRDYDTSKKITEQSDGLLAKVGMGMGSTVAVLFQSGRDTIDTVLKTILPFMAFVSALIGIIMASGLGDWIAHGLAPLASHPLGLVMLALICSFPLLSPFLGPGAVIAQVIGVLIGVQIGLGNIPPHLALPALFAINAQAACDFIPVGLSLAEARQDTVRVGVPSVLVSRFLTGAPTVLIAWFVSGFIYQ	–	5.44 h	–	5.5 h	–	2.06 ± 0.099 h	4.93 h	4.5 h	–	–	–	–
MTDKLTSLRQYTTVVADTGDIAAMKLYQPQDATTNPSLILNAAQIPEYRKLIDDAVAWAKQQSNDRAQQIVDATDKLAVNIGLEILKLVPGRISTEVDARLSYDTEASIAKAKRLIKLYNDAGISNDRILIKLASTWQGIRAAEQLEKEGINCNLTLLFSFAQARACAEAGVFLISPFVGRILDWYKANTDKKEYAPAEDPGVVSVSEIYQYYKEHGYETVVMGASFRNIGEILELAGCDRLTIAPALLKELAESEGAIERKLSYTGEVKARPARITESEFLWQHNQDPMAVDKLAEGIRKFAIDQEKLEKMIGDLL [P0A870]	5.35 ± 0.57 h	5.12 ± 0.34 h	5.35 ± 0.39 h	5.6 ± 0.23 h	5.04 ± 0.11 h	3.448 ± 0.0017 h	5.81 ± 0.19 h	5.14 ± 0.23 h	9.23 ± 0.13 h	6.18 ± 0.083 h	13.7 ± 0.78 h	11.1 ± 1.2 h
MNDIAHNLAQVRDKISAAATRCGRSPEEITLLAVSKTKPASAIAEAIDAGQRQFGENYVQEGVDKIRHFQELGVTGLEWHFIGPLQSNKSRLVAEHFDWCHTIDRLRIATRLNDQRPAELPPLNVLIQINISDENSKSGIQLAELDELAAAVAELPRLRLRGLMAIPAPESEYVRQFEVARQMAVAFAGLKTRYPHIDTLSLGMSDDMEAAIAAGSTMVRIGTAIFGARDYSKK	4.54 ± 0.38 h	5.38 ± 2.8 h	4.27 ± 0.37 h	5.68 ± 1.1 h	4.24 ± 0.45 h	3.39 ± 0.11 h	5.71 ± 0.17 h	4.33 ± 0.43 h	7.53 ± 0.85 h	5.95 ± 0.28 h	11.1 ± 0.35 h	8.8 ± 1 h
MNLHEYQAKQLFARYGLPAPVGYACTTPREAEEAASKIGAGPWVVKCQVHAGGRGKAGGVKVVNSKEDIRAFAENWLGKRLVTYQTDANGQPVNQILVEAATDIAKELYLGAVVDRSSRRVVFMASTEGGVEIEKVAEETPHLIHKVALDPLTGPMPYQGRELAFKLGLEGKLVQQFTKIFMGLATIFLERDLALIEINPLVITKQGDLICLDGKLGADGNALFRQPDLREMRDQSQEDPREAQAAQWELNYVALDGNIGCMVNGAGLAMGTMDIVKLHGGEPANFLDVGGGATKERVTEAFKIILSDDKVKAVLVNIFGGIVRCDLIADGIIGAVAEVGVNVPVVVRLEGNNAELGAKKLADSGLNIIAAKGLTDAAQQVVAAVEGK [P0A836]	4.73 ± 0.42 h	4.59 ± 0.34 h	4.45 ± 0.2 h	4.87 ± 0.23 h	4.18 ± 0.058 h	3.08 ± 0.061 h	5.79 ± 0.26 h	4.46 ± 0.14 h	7.39 ± 0.36 h	5.95 ± 0.15 h	12.2 ± 1.2 h	10.5 ± 1.7 h
MFKKSVLFATLLSGVMAFSTNADDKIILKHISVSSVSASPTVLEDTIADIARKYNASSWKVTSMRIDNNSTATAVLYK	–	–	5.17 ± 1.6 h	–	6.02 ± 0.31 h	–	3.54 ± 0.083 h	3.93 h	9.35 ± 3.8 h	5.33 h	11.5 h	6.51 ± 5.1 h
MSIRFARKADCAAIAEIYNHAVLYTAAIWNDQTVDADNRIAWFEARTLAGYPVLVSEENGVVTGYASFGDWRSFDGFRHTVEHSVYVHPDHQGKGLGRKLLSRLIDEARDCGKHVMVAGIESQNQASLHLHQSLGFVVTAQMPQVGTKFGRWLDLTFMQLQLDERTEPDAIG	5.23 ± 0.39 h	4.6 ± 0.25 h	4.9 ± 0.08 h	5.17 ± 0.18 h	4.66 ± 0.33 h	2.77 ± 0.072 h	5.77 ± 0.34 h	4.93 ± 0.44 h	9.49 h	5.912 ± 0.025 h	12 ± 0.29 h	10.14 ± 0.042 h
MSRRAGTPTAKKVTQLVNVEEHVEGFRQVREAHRRELIDDYVELISDLIREVGEARQVDMAARLGVSQPTVAKMLKRLATMGLIEMIPWRGVFLTAEGEKLAQESRERHQIVENFLLVLGVSPEIARRDAEGMEHHVSEETLDAFRLFTQKHGAK [P0A9F1]	5.72 ± 0.35 h	5.64 ± 0.32 h	4.73 ± 0.12 h	6 ± 0.3 h	5.06 ± 0.61 h	3 ± 0.046 h	5.03 ± 0.24 h	4.66 ± 0.23 h	9.78 ± 2.5 h	3.96 ± 0.21 h	8.06 ± 0.26 h	12 ± 5.5 h
MSTLEPAAQSKPPGGFKLWLSQLQMKHGRKLVIALPYIWLILLFLLPFLIVFKISLAEMARAIPPYTELMEWADGQLSITLNLGNFLQLTDDPLYFDAYLQSLQVAAISTFCCLLIGYPLAWAVAHSKPSTRNILLLLVILPSWTSFLIRVYAWMGILKNNGVLNNFLLWLGVIDQPLTILHTNLAVYIGIVYAYVPFMVLPIYTALIRIDYSLVEAALDLGARPLKTFFTVIVPLTKGGIIAGSMLVFIPAVGEFVIPELLGGPDSIMIGRVLWQEFFNNRDWPVASAVAIIMLLLLIVPIMWFHKHQQKSVGEHG	6.86 h	4.75 ± 1.4 h	–	–	5 h	–	5.16 ± 0.14 h	5.38 h	10.6 ± 0.24 h	6.7 h	13.2 ± 1.9 h	12 ± 1.7 h
